Data on five molecules can be found in article PMC5314169, “Structure of the Branched-chain Amino Acid and GTP-sensing Global Regulator, CodY, from Bacillus subtilis*” (The Journal of Biological Chemistry, 2016).

In series [1] the target is CodY(L3S), leucine 3 to serine mutant of CodY from Bacillus subtilis (Bacillus subtilis) (UniProt P39779). In words: crystal structure; CodY(L3S) at 18 mg/ml with 20 mM isoleucine; 15% PEG 5000, 5% tacsimate, 0.1 M HEPES pH 7.5; four molecules per asymmetric unit.
For series [2], the target named is T1, CodY (wild type, C-terminal His5) (Bacillus subtilis, UniProt P39779 2-259).
T1 sequence: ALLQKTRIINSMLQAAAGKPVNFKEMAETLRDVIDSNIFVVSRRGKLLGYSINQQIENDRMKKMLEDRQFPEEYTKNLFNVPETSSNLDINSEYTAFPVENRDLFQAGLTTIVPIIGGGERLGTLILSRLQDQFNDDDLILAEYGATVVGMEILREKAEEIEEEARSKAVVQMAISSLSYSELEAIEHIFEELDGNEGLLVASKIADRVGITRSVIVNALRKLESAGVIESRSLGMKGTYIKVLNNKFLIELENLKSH
Kind of series: EMSA; 10 mM Ile/Leu/Val; apparent Kd, CodY monomer; C2 predominant; EMSA: 20 mM Tris-Cl pH 8.0, 50 mM KCl, 2 mM MgCl2, 5% glycerol, 0.5 mM EDTA, 1 mM DTT, 0.05% Nonidet P, salmon sperm DNA (printed 40-25 ug/ml), room temperature 16 min, +/-10 mM ILV. The conditions noted are these: protein: recombinant, tags: C-terminal His5, chain copies: 2, blunt.

Series [3] has as its target T1, CodY (wild type, C-terminal His5). In words: EMSA; 10 mM Ile/Leu/Val; only C1 complex; EMSA: 20 mM Tris-Cl pH 8.0, 50 mM KCl, 2 mM MgCl2, 5% glycerol, 0.5 mM EDTA, 1 mM DTT, 0.05% Nonidet P, salmon sperm DNA (printed 40-25 ug/ml), room temperature 16 min, +/-10 mM ILV. Conditions: protein: recombinant; tags: C-terminal His5; chain copies: 2; label: 32P 5' on one strand; blunt.

Series [4] deals with the molecule itself. Kind of series: crystal structure; unliganded CodY, three crystal forms (A, B, C) grown from 10-20 mg/ml protein; form B with 10 mM GTP and form C with 5 mM GTPgammaS present but not seen bound; tetramer in all forms.
Series [5] concerns the molecule itself. Kind of series: SEC-MALLS; 100 ul of 1 mg/ml (~35 uM) protein on Superdex S200 10/300 in 50 mM Tris-HCl pH 7.5, 150 mM NaCl, with or without 10 mM isoleucine (no effect on the trace); no tetramers seen.

“CodY(L3S), leucine 3 to serine mutant of CodY from Bacillus subtilis (from UniProt P39779 1-259) (natural protein)”: the stoichiometry N (as a rule, the number of molecules, sites or subunits per partner or assembly) in series [1] was 4.

B1: BcaPp8(36) (dsDNA)
DNA 1: CAAAATAAAAAATTTGTCGAATTTTCTGAAAATTTT
DNA 2: AAAATTTTCAGAAAATTCGACAAATTTTTTATTTTG
For B1, the Kd in series [2] (label: 32P 5' on one strand in EMSA) amounted to 1.6 nM.

B2: BcaPp8(31) (dsDNA)
DNA 1: TAAAAAATTTGTCGAATTTTCTGAAAATTTT
DNA 2: AAAATTTTCAGAAAATTCGACAAATTTTTTA
As for B2, the Kd in series [2] (label: 32P 5' on one strand) is 1.6 nM.

B3: BcaPp8(19) (dsDNA)
DNA 1: CGAATTTTCTGAAAATTTT
DNA 2: AAAATTTTCAGAAAATTCG
For the molecule B3, the binding result in series [3] was “binds”.

B4: CodY from Bacillus subtilis, full-length, wild type (natural protein)
chain: GPAMALLQKTRIINSMLQAAAGKPVNFKEMAETLRDVIDSNIFVVSRRGKLLGYSINQQIENDRMKKMLEDRQFPEEYTKNLFNVPETSSNLDINSEYTAFPVENRDLFQAGLTTIVPIIGGGERLGTLILSRLQDQFNDDDLILAEYGATVVGMEILREKAEEIEEEARSKAVVQMAISSLSYSELEAIEHIFEELDGNEGLLVASKIADRVGITRSVIVNALRKLESAGVIESRSLGMKGTYIKVLNNKFLIELENLKSH
notes: what is left of the tag after cleavage with human rhinovirus 3C protease, printed as Gly-Pro-Ala; CodY, Bacillus subtilis, 259 amino acid residues, calculated mass 29 kDa; construct pET-YSBLIC-BsCodY; also called unliganded CodY; wild-type CodY; source: E. coli BL21(DE3), purified (nickel chelation, 3C protease cleavage, second nickel column, heparin, Superdex 200); not shown: polyhistidine, …
In the case of B4, the results for the “stoichiometry N” value in series [4] and in series [5] were 4 and 2, respectively.
